Laboratory results as given in publication PMC3471226 (The Journal of Cell Biology, 2012).

T1: GST-Tiam1-PDZ4 (mouse, UniProt Q60610 765-1234)
T1 sequence: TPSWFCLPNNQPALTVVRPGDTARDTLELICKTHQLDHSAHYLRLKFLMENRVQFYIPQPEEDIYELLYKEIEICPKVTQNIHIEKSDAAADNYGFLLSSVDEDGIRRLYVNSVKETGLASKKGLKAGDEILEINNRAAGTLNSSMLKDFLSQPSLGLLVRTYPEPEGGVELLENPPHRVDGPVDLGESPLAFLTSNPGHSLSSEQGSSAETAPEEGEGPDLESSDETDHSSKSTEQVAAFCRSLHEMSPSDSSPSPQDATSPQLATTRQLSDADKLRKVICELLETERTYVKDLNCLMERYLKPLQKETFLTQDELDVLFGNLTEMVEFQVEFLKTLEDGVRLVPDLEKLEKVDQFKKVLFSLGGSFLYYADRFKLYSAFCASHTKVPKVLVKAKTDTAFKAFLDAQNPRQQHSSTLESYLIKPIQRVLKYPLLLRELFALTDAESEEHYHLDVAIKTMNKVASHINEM


Tests used:
[1] = molecular target: GST-talin1 A366/368 (mouse) (UniProt P26039); assay: pull-down
[2] = molecular target: T1, GST-Tiam1-PDZ4; assay: SPR

Row | decrease of association relative to wild type [1] [%] | Kd [2] [nM] | Molecule
1 | 90 |  | Tiam1-C1199-HA (from UniProt Q60610 1-1591) (domain or fragment)
2 |  | ~430 | His-talin1 (1–433 aa) (domain or fragment, mouse, UniProt P26039 1-433, looked up) MVALSLKISIGNVVKTMQFEPSTMVYDACRMIRERIPEALAGPPNDFGLFLSDDDPKKGIWLEAGKALDYYMLRNGDTMEYRKKQRPLKIRMLDGTVKTIMVDDSKTVTDMLMTICARIGITNHDEYSLVRELMEEKKDEGTGTLRKDKTLLRDEKKMEKLKQKLHTDDELNWLDHGRTLREQGVEEHETLLLRRKFFYSDQNVDSRDPVQLNLLYVQARDDILNGSHPVSFDKACEFAGFQCQIQFGPHNEQKHKAGFLDLKDFLPKEYVKQKGERKIFQAHKNCGQMSEIEAKVRYVKLARSLKTYGVSFFLVKEKMKGKNKLVPRLLGITKECVMRVDEKTKEVIQEWSLTNIKRWAASPKSFTLDFGDYQDGYYSVQTTEGEQIAQLIAGYIDIILKKKKSKDHFGLEGDEESTMLEDSVSPKKSTVLQ
